Assay: soluble fraction after stress (log2 fold change); higher = more stays soluble; pooled small domains, quantitative proteomics
Conditions: stress: 50 degC
In short: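 Custom libraries of small protein domains were pooled and measured in a high-throughput format, with quantitative proteomics as the read-out. Each library was stressed at 50°C. The value is the log2 fold change in the amount of each protein that stays soluble after stress, used as a measure of aggregation propensity; higher values mean more of the protein stays soluble.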

| Sequence | soluble fraction (log2) |
| --- | --- |
| HMGNRQEQVRIIRDLWRQLADAGQPVPAKHLTLDLDALDATQLTKLEDQAHGWLAKLSAQADLADAA | -0.0488 |
| HMSGEIPFPPAFKPSADHIAIASEKGINIETELLNFRDYHQARGTKLIDWNSAFRVWLRNAR | -0.144 |
| HMADEDTILALAKEILASWPDKVEAYKNGNKGMLGLFMGELMKKSGGKANPKSASALIQKLLE | -0.0387 |
| HMGRNSTPKEPLKKFEVSPITEKEVRILDGRFGPYITDGATNVTVPKTITIEEITFERALDMLAEKAAKGP | 0.0252 |
| HMTSVMAWRLITPIPQHGIIRSSQVQLQKHAPNSLKFLDVDSSPVGKQVKHGIAAGHWLSKDDFTE | -0.937 |
| HMHSILDDIPTVGPARRKALMRRYESLEAIRQATVDELKELPEINEASAEAIVSFFAGQAKEG | -0.0626 |
| HMAGPAGASEVANARDGDDETPLHMAARGGYPGIVRMLLAAGAKADAKSAAGLFPWNYAEDGSELHALLPR | 0.0684 |
| HMAFRWQQIADTITSMIANGSYPRGSRLPTEAALADSFGVNRHTVRRAVAALRDTGLVQPRQGAGVFVIG | -1.55 |
| HMRDQAIDIYKTVHSVAEPYKEVFLLRVLGELSFKEISHIFGKSESWAKVTFFRAKIKVVEKREES | -3.74 |
| HMEMKMGHIISKLRYESGYSQVELAEKIGITKGAVGMYETDKRKPDYDTLIKLADLFNVSTDYLLS | 0.0501 |
| HMASEVEVPNVYGMPSSLAERELSAVGLLADYRSRTGTGQQPGTVVHVKPDAGTVVSRGSTVVLFIA | 0.00535 |
| HMGITMFGQNLKKLRTSKNLSQSKLSKILGISSSTIGMYEQGRRFPDQTILTKIADFFDVSTDYLLGR | -0.268 |
| HMDYGSLQRAIENQLEVRNYQKPKKFLTKIIQLMETIMVRHGVMVVGLTGTGKTTVIETLSRSMEQ | -0.302 |
| HMEGNWGLWAKVPNRFAALTTDKDSALRRFKSKEDGEAWMASHGLKPERFDVLEIPADYKPA | 0.0433 |
| HMTVSIDSLFDKFEDLQEQGLGDKTEEGQELRGLIRAFIEQEHLSVRITRSTSNQELLDMIEEAMQ | -1.45 |
| HMGSEYILTIIPTPADATVFINGVKKNSASGVNGQILSWEVTKEGYIPQSGTFTINGKNETIEVVLQPQT | 0.00105 |
| HMDIPTSAEAVRAYLASGFIKGIGEATARMLVDKFGAETLEIIKTEPMKLTKISGIGPKKAKMIHESYLEK | 0.177 |
| HMSTVEKDSELGGNFRIASYPTGKGQISEAIRSMIVRAKQVGVNIRLNTEATEEPLRALAPNAVILATG | 0.0325 |
| HMSIYQYFNISEINSIDDLKKQYFKLAKKYHPDAGGDKVSFQELQNEYEQLTKKILSGAELNADELKTE | -0.109 |
| HMNIMAQDWISSPMGPISFKSNQHGLVKIGWGEVPRENTEQPNLEFTRKWLVDYFEGKASPLPYF | -0.329 |
| HMKTPAPRETILSLFRQTPDGFVSGERISDELGVSRTAVWKHIRNLRQAGYQIEAIPSRGYQLQQS | -0.359 |
| HMLERKFGTSLEIKSLSKFLIENNYKKNAKYLNKLIQVLGTRSENRIIKTFFKQFPEIENIFRNQL | -0.846 |
| HMEKNKERIAFLKKRLEMYYEAEEKILQGQSYTIGSRTLTRTSLANVQSKIKELESEISALETRGN | -0.57 |
| HMAPLATLEAGEDGSVKLPNLAGHSIREVAAALGGAKLSLIPIGSGTSWKQTPAPGAVLHSGDTVTVYF | 0.142 |
| HMQVAPQVERLLRVMGNETLSLSDIMGRMGLSDKKNFRESYLVPALRSAVIEMTIPDKPNSSLQKYRRIHE | -0.176 |
| HMLFSEKLKQAMQDLHLNQIQVVGLTGKSKGSISQYISGKQVPSEATQRDIAISLGLEENYFSKK | 0.282 |

| Sequence | soluble fraction (log2) |
| --- | --- |
| HMTISDTAYQAFLEQLGVGMVVEHKRFGEGVITGMPKGKIRITFEEGTKSFQARALAESGMLK | -0.59 |
| HMSTQYKTGHYKTTDALNLRASYSTSSNVLLTIPKGKTIVVTRVHNNEWGQVEYNGKTGWIYLEYTAYTES | 0.0697 |
| HMLQYSQEIEEAQKILQNLGLYKGEIDGINGVNTKSAIKEFQRKSGLIIDGILGPNTTSALSKGAESYITV | 0.112 |
| HMDSISEQIYSIIKEEILLAKRKPGEQINPRKLADEFETSVMPIRDALNQLANEGLVIRKPRVGFFVR | 0.0655 |
| HMTALISGNKAMQMLELSRHSFEKIVKDGLLSIVHEGDKKYYEIGEVEAFMGSDTYKELVNGV | -0.345 |
| HMRTAKEVFYKELKGYMQNGDELSVKKIYSLFPEINPKTVSWRLHELVQHGKIHRTGHGYYALTQ | -1.07 |
| HMEYKYNPADYPYPLNEDIEKVYSAYREKSIGKLEAAVQNLYYTLKQARRDNILSDVKVNEMQQYFLALRN | -0.324 |
| HMAMTITKIEKTSQQKIYYFTDSGRVFKKMSDRSATIAVDDRVELEGGVLGSKFFVTANGSRVKVKEV | -0.516 |
| HMNSKSDDELLSKTTSLLIHAAKIDENYTDKEKEIIKKTLIQLGVKESKADQIMLTAEINEE | ≥ 0.62 |
| HMSMRILNHTVVKILKRYRIATDEQLQPLLDEAERSGRSLQDVVLDAKLVSETELTKLFADYAD | -0.0864 |
| HMADEIQLVVQVNGKLRGRIMVAPDASREEIEKTALADADVSRFLGDTPVKKVIIVPKRLVNIVAPAPK | -0.0114 |
| HMRITRREQQVLHLLAMGMTTREIAGHINLTERTVRNRISNLRDKLGAQTASQLLAKAVAQGLIEP | -2.02 |
| HMAAELHPYGADSYRGDNPPAGYEIKAKEESKKFHTPSSPWYGRTIAEIWFRTEEAAEAAGFINAVK | -0.23 |
| HMQSLDGPSRAAIVLMAIGPDVAGELIKSFSPAEAQKVSSLLATVRSLDREVMIEVLDSFKNITEH | -0.323 |
| HMTDLEDDEKKVYRLIVESGEGIDFDTLSERSGFSATELPSILLFLMMKEMIDELPGKIYRYSE | 0.0814 |
| HMSVDIIPGKADQKVRLIHDPAIVGVTTGGVKTAGPHTLIQIELGPNERPYKRLSLLELIPEG | -0.115 |
| HMFYPIAHTLTKLNIRSGPGEQYQKLATFENNHDLVVLTQQNEWVQVRGKSDEQVIIGWVHSSFLSPT | -1.09 |
| HMAKQEPTDNGYDIYKVTASVLNVRNGAGTSYAVAYQLSKEDYVEVVSIDKGWAKLKDGKYVSADWITLYK | -0.54 |
| HMLNEIMDTINKYISDKRNNKVAQNILSAALDELNSQIRVGLKDLNPHSIEEFKENVINSPYIEFEQG | 0.046 |
| HMGATYSQFLDQVDGGNVQKVTFSGDMRSGTNQISYTTRSGQSATITAPMDRDLINILRAKNVEIVQEEP | 0.026 |
| HMTDIVPNLIGKSLKDAIQSVEKSNLKAIFDGHGIVVSQQPRPGSPIPARKIMKVTLSPDYR | 0.011 |
| HMAESSLPKMPRDESKYIYHSVQPGETVYSLSKRYSVSESDIVKSNPGIDITKLSLGLEVAIPRI | 0.354 |
| HMKRDEYIAQLKKYLKRLPKKEYDSAIEYFTEYFDEAGPERELEVIQELGQPKEAAKEMLLQLLNE | 0.0905 |
| HMLEIQENFQNILKRMELSLSPLERRVLALYLSGYERSEIPEKTGIPLKTFDNALHRVRNKMK | -1.53 |
| HMSVKVFRDQILLNNDSDKMLQLSFSNLFGQKVLETSISPGKSAISTGNLPPGIYFITTSPATGVMRVII | -1.12 |
| HMADKHVAAALLKLMDHLVGGRQYAFMKGRLTINKKVVLEATEVSAYRRGTGLSDADWQQRYE | -1.97 |

| Sequence | soluble fraction (log2) |
| --- | --- |
| HMAFKEQLKAARLAKGYTQEQLATAIGVAKSTFTGYEKGNSEPNMLTIKKLMEILEVDANYLWY | -2.49 |
| HMQGENDVTIDPKKLTIGDLAKEISKIEDSEELNNILVAEKEGKGRKGAINAITERIENVSGGTG | 0.133 |
| HMEFEYTVVVPETRGKTIGEAGRILLDLELKYTSESMNIREDSKVIDQFPSPGTEVSKGSIIDLYLDE | 0.0563 |
| HMDAKIEYTMSDLIENRLINSDDASMRREKLSEILKIGYGNGKKTLHKLNSFGITREEFEEAMKEVNSH | 0.0697 |
| HMPIGENIKRLRIMHGLSQKELAQIAGVSDKAVSTWENGTKEPRMGAVQKITGYFGLKKSNLIEDNGL | -0.0331 |
| HMRNLFWTEAQNAQNELNAMRINALTQSIRRIEPNFRGIPSLRDPNRPIPNEEVRDYENYLNRILP | 0.119 |
| HMAVKPIDRLRSLMAESNVTDAELQKVVADKGHYAADAPIDSYSEKFISGWLIKYWSQILNLINADRTVL | -0.0363 |
| HMSGAWEVGLLRQFTDWMGTQYNAYAGRNFDAITVAQVAEKNPELLTPFVESFFKERVEPALAAG | -0.849 |
| HMALQLPFSFAKRHKVLVESAHEPVKVYHTPSTDFAVFAEVRRFLDQTFVLEEIAENRFEELLTSSFQRD | -1.27 |
| HMKKTIIVHVVGEVNTPGIVELNEGARIIDAINGAGGKTEEADMSKINLAYVIEDGSQIYVPSIYE | -0.227 |
| HMDYYDTLGVPRNASQSDIKKAYKKQSMQHHPDRTGGDDTKFKDVNEAYQVLSNSEKKQMYDQFGTA | 0.0532 |
| HMLDLPVKTINGKQYYYYTVKKGDTVYSLITRFGITRSDLVESNPAAADVLKTGDTLYFAVDKFG | -0.0825 |
| HMNIGELINKKRTELGLTLEEVGNAVGVSKSTVKKWEDGFISNMRRDKISKLAKVLEMNPVSLITGE | 0.0389 |
| HMNSDQMKEHLDNLVDMAKKNDNTLIDTEIVNYFVGKPDIELNTDMMTKIFDYLDEHHVAVLS | -0.107 |
| HMNSIDIENELVKIIEKNGQPMSFDDLVFKLDSLYSTRYKFAKGYIRTIILNSNRIASIGKTSTYSLYKWN | -2.25 |
| HMDSERTALLSSDRTSFTAREAALLIGVSQRDIYRMIEDELLDSFTVGKMIRIRRSALEWWLS | -2.92 |
| HMASALDFGRYVRSQYSLQEFPLILIAPLNDPHPKEVVRELFNLYLTKPITRSRLFDSLMTVLG | -0.753 |
| HMGAAITEAEAKQIALDHAGVSESETERMRVKLGRDDGVQEYEVNFYVGNREYDYDINAATGEIRSHDSE | 0.0811 |
| HMEQISVPIFTNDELVTFARSYSGELGYKIDDMAVLALYNRISNIQRLDQATTLTEVKDIVDEAVAKSE | -0.0661 |
| HMQNGNYVVQRQDSLWSIAARISGQTHQPIGEVMNHIKALNEHAFVGGNVNRLRTGTNLNLG | -0.156 |
| HMKSNESAELGERMLNKALLALHTDSSKISDTQWQKLLRDYGAKNKQEILTDIGLGKRLNVMVAHQLMAMG | -0.0795 |
| HMQDTIDLVIQVNGKLRGQMNVPKDTDRATIEQLAINLENVQKIVAGNAIKKIIIVPGRLINIVVSKNL | -0.925 |
| HMGNKDAQLVHLAKMNEIQIELMKTGRGYMVTDQNVYNLAKKMGENMGFKHPDLFLTDPAKV | -0.0553 |
| HMSAGYTYQNYQQDLKSGNVQNIHIYLSEEMYSGNVKVIYKNNKSVTFTVTDVTIAEAEARQVGISPIIYE | -0.1 |

— the domain aggregation screens of Martell et al. (2025)
